Experimental data from the supplement of paper PMC9876800.

Tested on: peptide library, one residue held at a place counted from the S/T acceptor
Assay: relative phosphorylation of the sub-library (ratio to the mean residue at this position); higher = residue favoured
How it was run: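 Each biotinylated degenerate peptide sub-library fixed one residue at one position around a central Ser/Thr and was incubated with a purified recombinant kinase, a human or orthologue construct, in 384-well plates. The 90 min reactions, under kinase-specific conditions, contained 50 μM peptide and 50 μM ATP spiked with γ-32P-ATP. Phosphorylation was read by phosphorimaging spots on streptavidin membranes and quantifying them by densitometry. Relative sub-library phosphorylation expresses each value as a ratio to the mean residue at that position.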

MAPK8, construct: aa1-384, human, sequence (P45983 1-384, looked up): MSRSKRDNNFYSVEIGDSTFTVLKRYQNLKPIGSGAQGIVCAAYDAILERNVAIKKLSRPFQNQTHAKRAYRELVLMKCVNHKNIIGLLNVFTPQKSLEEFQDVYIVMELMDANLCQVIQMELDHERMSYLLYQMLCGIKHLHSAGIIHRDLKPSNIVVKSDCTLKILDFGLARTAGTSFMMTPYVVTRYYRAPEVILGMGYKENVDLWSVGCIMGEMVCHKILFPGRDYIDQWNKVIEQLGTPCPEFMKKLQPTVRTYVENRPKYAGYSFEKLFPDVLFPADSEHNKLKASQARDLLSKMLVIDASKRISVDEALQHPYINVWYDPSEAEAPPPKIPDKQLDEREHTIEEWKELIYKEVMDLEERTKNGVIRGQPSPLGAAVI
CDK17, construct: Full length, human, sequence (Q00537 whole entry, looked up): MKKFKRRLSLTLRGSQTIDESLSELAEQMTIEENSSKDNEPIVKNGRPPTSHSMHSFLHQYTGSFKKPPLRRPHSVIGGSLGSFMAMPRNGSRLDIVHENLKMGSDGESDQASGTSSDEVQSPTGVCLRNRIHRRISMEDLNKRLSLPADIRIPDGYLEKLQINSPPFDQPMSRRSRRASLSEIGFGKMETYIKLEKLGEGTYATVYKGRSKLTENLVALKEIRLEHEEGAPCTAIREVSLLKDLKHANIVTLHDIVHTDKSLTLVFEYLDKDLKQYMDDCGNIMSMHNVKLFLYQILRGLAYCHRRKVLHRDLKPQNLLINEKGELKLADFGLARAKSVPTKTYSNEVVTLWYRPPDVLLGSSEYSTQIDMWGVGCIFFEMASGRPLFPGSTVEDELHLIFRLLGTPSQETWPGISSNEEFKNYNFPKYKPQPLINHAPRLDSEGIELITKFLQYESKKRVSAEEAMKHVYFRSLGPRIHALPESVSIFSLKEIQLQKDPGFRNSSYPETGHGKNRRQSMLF

MAPK8, construct: aa1-384, human (from UniProt P45983)
relative phosphorylation
Settings	at +1	at +2	at +3	at +4	at -1	at -2	at -3	at -4	at -5
A fixed	0.237	0.912	1.46	1.17	1.03	2.05	1.17	1.13	1.18
D fixed	0.295	1.06	1.86	1.25	0.995	0.9	1.65	1.61	1.42
E fixed	0.222	0.814	1.86	1.34	0.888	0.556	1.5	1.41	1.06
F fixed	0.309	0.673	0.845	0.778	0.6	0.456	0.663	0.858	0.94
G fixed	0.676	1.22	1.49	1.07	1.31	0.724	1.1	1.03	1.06
H fixed	0.21	0.841	1.02	1.05	0.938	0.446	0.937	1.07	1.07
I fixed	0.247	1.67	0.698	1.11	0.674	1.41	0.797	0.728	0.763
K fixed	0.195	0.501	0.528	0.698	0.95	0.348	0.571	0.75	0.791
L fixed	0.322	1.45	0.881	1.02	1.45	2.55	0.898	0.753	0.685
M fixed	0.25	2	0.922	1	1.43	1.3	0.984	0.962	0.744
N fixed	0.191	0.793	0.84	0.819	0.861	0.469	1.06	0.846	0.826
P fixed	12.8	0.568	0.629	1.57	1.52	2.46	1.33	1.25	1.39
Q fixed	0.193	0.851	0.826	0.913	1.37	0.665	1.01	1.08	1.21
R fixed	0.18	0.575	0.619	0.547	0.886	0.484	0.879	0.778	0.974
V fixed	0.254	1.87	0.809	0.909	0.844	1.48	0.91	0.891	0.849
W fixed	0.196	0.53	0.878	0.937	0.582	0.338	0.727	0.993	0.858
Y fixed	0.213	0.663	0.837	0.81	0.671	0.381	0.808	0.865	1.19
pThr fixed	0.612	2.32	1.64	1.91	0.582	1.28	1.14	1.37	1.34
pTyr fixed	0.866	1.99	8.3	3.22	1.84	1.25	1.58	2.57	1.93

CDK17, construct: Full length, human (from UniProt Q00537)
relative phosphorylation
Settings	at +1	at +2	at +3	at +4	at -1	at -2	at -3	at -4	at -5
A fixed	0.203	0.683	0.739	1	0.979	1.25	0.977	0.99	1.07
D fixed	0.116	0.603	0.323	0.54	0.654	0.496	0.806	0.95	0.96
E fixed	0.109	0.412	0.294	0.427	0.49	0.585	0.902	1.02	0.845
F fixed	0.152	0.697	0.959	0.828	0.644	0.742	0.666	0.802	0.856
G fixed	0.781	0.865	0.862	1.86	1.93	0.898	1.62	1.19	1.01
H fixed	0.152	1.16	0.66	1.14	0.801	0.831	0.907	0.98	1.18
I fixed	0.157	0.826	1.48	0.823	0.251	0.872	0.68	0.836	0.806
K fixed	0.236	2.09	0.904	1.32	1.61	0.701	0.945	1.34	1.49
L fixed	0.17	1.03	2.01	0.797	0.689	0.962	0.675	0.779	0.98
M fixed	0.17	1.02	1.99	0.99	1.06	1.13	0.881	0.822	0.861
N fixed	0.174	1.15	0.854	0.987	1.03	1	1.21	1.37	1.02
P fixed	13.6	0.758	1.66	0.889	1.69	3.2	2.12	1.41	1.06
Q fixed	0.195	1	0.962	0.962	1.28	0.893	1.03	0.933	0.834
R fixed	0.191	1.92	0.783	1.52	1.51	0.875	1.13	0.924	1.01
V fixed	0.222	0.863	1.07	0.77	0.403	0.859	0.782	0.605	0.698
W fixed	0.181	0.879	0.791	1.09	0.999	0.887	0.855	1.14	1.19
Y fixed	0.149	1.05	0.65	1.06	0.97	0.824	0.818	0.907	1.12
pThr fixed	0.514	0.699	0.939	0.451	0.438	0.909	1.06	1.04	0.832
pTyr fixed	0.707	0.491	0.903	0.492	0.452	0.788	0.883	0.7	0.88
